Patent US20260176653A1 (TRUSTEES OF BOSTON UNIVERSITY, published 2026)
Ends that are not written are not given here.

What was measured:
Test in all cases: cell-based or functional assay
[1] = target: Bcl-xL (human, fused to the C-terminus of ADAR2-DD) (human, UniProt Q07817 4-198)
[2] = target: EGFP(R96M)-AlfaTag fusion protein (non-fluorescent EGFP carrying the ALFA tag)
[3] = target: T1, HCV protease NS3 from genotype 1B (NS4A/NS3, fused to the C-terminus of ADAR2-DD) (Hepatitis C virus genotype 1B, UniProt Q9WMX2 1029-1206)
T1 chain: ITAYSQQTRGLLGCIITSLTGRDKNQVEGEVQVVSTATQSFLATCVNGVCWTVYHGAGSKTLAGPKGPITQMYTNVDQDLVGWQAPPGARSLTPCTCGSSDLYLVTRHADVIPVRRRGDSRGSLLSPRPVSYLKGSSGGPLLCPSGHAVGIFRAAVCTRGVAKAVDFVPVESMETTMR

B1: Bad(L) peptide (Bad point mutant F121L, inserted at the 5' RNA binding loop of ADAR2-DD) (peptide)
peptide: ASGSGTGAPPNLWAAQRYGRELRRMSDELV
modifications: not fully specified (N-terminus, C-terminus); also: part of an expressed fusion protein
Fold Change (1 µM over 0 µM A-1331852) [1]: 23.2 fold | median ratio of mNeonGreen to mCherry, flow cytometry, 0 µM A-1331852 (background) [1]: 0.0389 | median ratio of mNeonGreen to mCherry, flow cytometry, 1 µM A-1331852 [1]: 0.903

B2: ALFA-Bcl dual input iADAR (BAD peptide at the N-terminus of ADAR2-DD(F697Y), ALFA-PE at the 5' RNA binding site, AlfaNb and Bcl-xL in tandem at the C-terminus) (other)
chain: MASNFTQFVLVDNGGTGDVTVAPSNFANGIAEWISSNSRSQAYKVTCSVRQSSAQNRKYTIKVEVPKGAWRSYLNMELTIPIFATNSDCELIVKAMQGLLKDGNPIPSAIAANSGIYGGSGSGAGSGSPAGGGAPGSGGGSTGAPPNLWAAQRYGRELRRMSDEFVDSFKKASQLHLPQVLADAVSRLVLGKFGDLTDNFSSPHARRKVLAGVVMTTGTDVKDAKVISVSTGTKCINGEYMSDRGLALNDCHAEIISRRSLLRFLYTQLELYLNNKDDQKRSIFQKSERGGFRLKENVQFHLYISTSPCGDARIFSPHEPILEEPAASGSGPGRLEEELRRRLSPGTGDRHPNRKARGQLRTKIESGQGTIPVRSNASIQTWDGVLQGERLLTMSCSDKIARWNVVGIQGSLLSIFVEPIYFSSIILGSLYHGDHLSRAMYQRISNIEDLPPLYTLNKPLLSGISNAEARQPGKAPNFSVNWTVGDSAIEVINATTGKDELGRASRLCKHALYCRWMRVHGKVPSHLLRSKITKPNVYHESKLAAKEYQAAKARLFTAFIKAGLGAWVEKPTEQDQYSLTGSGGTAEVQLQESGGGLVQPGGSLRLSCTASGVTISALNAMAMGWYRQAPGERRVMVAAVSERGNAMYRESVQGRFTVTRDFTNKMVSLQMDNLKPEDTAVYYCHVLEDRVDSFHDYWGQGTQVTVSSGAGSGASSNRELVVDFLSYKLSQKGYSWSQFSDVEENRTEAPEGTESEMETPSAINGNPSWHLADSPAVNGATGHSSSLDAREVIPMAAVKQALREAGDEFELRYRRAFSDLTSQLHITPGTAYQSFEQVVNELFRDGVNWGRIVAFFSFGGALCVESVDKEMQVLVSRIAAWMATYLNDHLEPWIQENGGWDTFVELYGNNGSSELIKENMHMKLYMEGTVDNHHFKCTSEGEGKPYEGTQTMRIKVVEGGPLPFAFDILATSFLYGSKTFINHTQGIPDFFKQSFPEGFTWERVTTYEDGGVLTATQDTSLQDGCLIYNVKIRGVNFTSNGPVMQKKTLGWEAFTETLYPADGGLEGRNDMALKLVGGSHLIANIKTTYRSKKPAKNLKMPGVYYVDYRLERIKEANNETYVEQHEVAVARYCDLPSKLGHKLN
median relative fluorescence, flow cytometry: A-1331852 plus EGFP(R96M)-AlfaTag against A-1331852 alone (the effect of adding the antigen) [2]: ~10 fold

GELDELVYLLDGPGYDPIHCDVVTRGGSHLFNF [CP5-46-4D5E peptide (NS3 binding peptide, inserted at the 5' RNA binding loop of ADAR2-DD)]
ratio of mNeonGreen to mCherry, 2 µM grazoprevir against no drug, HEK cells, imaging (fusion SEQ ID NO 169) [3]: ~18 fold

ASGSGTGAPPNLWAAQRYGRELRRMSDEVV (not fully specified) [BAD(V) peptide (Bad point mutant F121V, inserted at the 5' RNA binding loop of ADAR2-DD)]
Fold Change (1 µM over 0 µM A-1331852) [1]: 14.4 fold | median ratio of mNeonGreen to mCherry, flow cytometry, 0 µM A-1331852 (background) [1]: 0.0708 | median ratio of mNeonGreen to mCherry, flow cytometry, 1 µM A-1331852 [1]: 1.02

ASGSGTGAPPNLWAAQRYGRELRRMSDEGV (not fully specified)
Fold Change (1 µM over 0 µM A-1331852) [1]: 9.65 fold | median ratio of mNeonGreen to mCherry, flow cytometry, 0 µM A-1331852 (background) [1]: 0.1 | median ratio of mNeonGreen to mCherry, flow cytometry, 1 µM A-1331852 [1]: 0.968

B3: Bad(F) peptide (BH3 peptide Bad with its linker, as inserted at the 5' RNA binding loop of ADAR2-DD) (peptide)
peptide: ASGSGTGAPPNLWAAQRYGRELRRMSDEFV
modifications: not fully specified (N-terminus, C-terminus); also: part of an expressed fusion protein
Fold Change (1 µM over 0 µM A-1331852) [1]: 37 fold | median ratio of mNeonGreen to mCherry, flow cytometry, 0 µM A-1331852 (background) [1]: 0.026 | median ratio of mNeonGreen to mCherry, flow cytometry, 1 µM A-1331852 [1]: 0.962
